# Test results from doi:10.1101/2022.06.01.494398, “Herpes simplex virus 1 protein pUL21 stimulates cellular ceramide transport by activating CERT” (bioRxiv, 2022).
# T1: H6-pUL21C (HSV-1, UniProt P10205 275-535)
# T1 chain: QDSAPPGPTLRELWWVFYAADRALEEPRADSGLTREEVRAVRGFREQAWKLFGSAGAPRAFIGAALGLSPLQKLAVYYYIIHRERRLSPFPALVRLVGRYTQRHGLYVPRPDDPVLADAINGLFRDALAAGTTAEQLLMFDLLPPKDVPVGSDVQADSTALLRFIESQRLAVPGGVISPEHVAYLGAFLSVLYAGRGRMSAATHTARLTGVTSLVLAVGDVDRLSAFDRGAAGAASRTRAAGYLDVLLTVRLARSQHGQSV
# T2: pUL21^V382E-H6 (HSV-1, UniProt P10205 1-535, V382E)
# T2 construct: HSV-1 tegument protein pUL21 with V382E; The tag's end is read from the name pUL21^V382E-H6; also called H6-pUL21^V382E; V382E pUL21-H6; source: E. coli T7 Express lysY/Iq, purified (Ni-NTA, SEC); not shown: H6, C-terminal, kept
# T2 sequence: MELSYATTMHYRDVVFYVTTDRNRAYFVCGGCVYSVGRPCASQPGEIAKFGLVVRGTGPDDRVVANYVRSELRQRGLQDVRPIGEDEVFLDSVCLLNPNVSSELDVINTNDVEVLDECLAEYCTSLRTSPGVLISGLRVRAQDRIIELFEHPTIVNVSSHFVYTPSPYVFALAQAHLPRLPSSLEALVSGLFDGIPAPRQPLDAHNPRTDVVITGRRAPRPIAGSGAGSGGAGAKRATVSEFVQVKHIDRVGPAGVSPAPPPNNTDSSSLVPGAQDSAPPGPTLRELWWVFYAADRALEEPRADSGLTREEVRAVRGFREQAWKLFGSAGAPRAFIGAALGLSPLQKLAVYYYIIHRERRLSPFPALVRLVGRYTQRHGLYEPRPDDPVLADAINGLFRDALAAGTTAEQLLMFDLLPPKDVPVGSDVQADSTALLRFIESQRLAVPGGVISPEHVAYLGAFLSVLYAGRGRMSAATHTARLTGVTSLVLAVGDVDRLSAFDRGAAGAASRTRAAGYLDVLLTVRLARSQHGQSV
# T3: H6-pUL21C (HSV-1, UniProt P10205 275-535)
# T3 construct: HSV-1 pUL21 C-terminal domain, amino acids 275-535; In pOPTH; N-terminal MAH6QD and C-terminal HGQSV are missing from the crystal structure 5ED7 and were modelled; also called C-terminal domain of pUL21; source: E. coli T7 Express lysY/Iq, purified (Ni-NTA, SEC); not shown: MAH6, N-terminal, kept
# T3 sequence: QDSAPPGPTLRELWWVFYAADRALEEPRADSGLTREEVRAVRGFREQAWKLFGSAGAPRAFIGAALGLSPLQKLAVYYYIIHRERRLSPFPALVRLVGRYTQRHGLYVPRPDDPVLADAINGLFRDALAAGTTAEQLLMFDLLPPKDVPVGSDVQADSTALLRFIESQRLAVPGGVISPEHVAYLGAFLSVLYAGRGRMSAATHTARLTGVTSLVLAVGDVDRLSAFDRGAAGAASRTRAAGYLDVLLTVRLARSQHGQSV
# T4: pUL21-H6 (HSV-1, UniProt P10205 1-535)
# T4 construct: HSV-1 tegument protein pUL21; The tag's end is read from the name pUL21-H6; also called wild-type pUL21; full-length pUL21; source: E. coli T7 Express lysY/Iq, purified (Ni-NTA, SEC); not shown: H6, C-terminal, kept
# T4 sequence: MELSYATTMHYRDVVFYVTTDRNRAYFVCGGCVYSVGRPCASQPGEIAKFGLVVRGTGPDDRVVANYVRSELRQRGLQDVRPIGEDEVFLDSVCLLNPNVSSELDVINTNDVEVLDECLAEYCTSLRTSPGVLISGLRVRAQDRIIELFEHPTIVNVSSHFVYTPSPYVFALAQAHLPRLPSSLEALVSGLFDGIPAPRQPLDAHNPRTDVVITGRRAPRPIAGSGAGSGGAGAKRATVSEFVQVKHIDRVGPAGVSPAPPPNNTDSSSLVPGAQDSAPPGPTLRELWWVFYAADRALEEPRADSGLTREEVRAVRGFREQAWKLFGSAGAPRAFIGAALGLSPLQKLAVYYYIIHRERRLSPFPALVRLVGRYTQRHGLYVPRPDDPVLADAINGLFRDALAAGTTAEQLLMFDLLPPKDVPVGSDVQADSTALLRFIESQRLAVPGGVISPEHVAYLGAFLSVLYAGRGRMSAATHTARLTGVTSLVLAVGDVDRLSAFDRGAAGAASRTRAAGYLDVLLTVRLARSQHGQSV
# T5: StrepII-CERTL^S132A (human, UniProt Q9Y5P4-1 1-624, S132A)
# T5 sequence: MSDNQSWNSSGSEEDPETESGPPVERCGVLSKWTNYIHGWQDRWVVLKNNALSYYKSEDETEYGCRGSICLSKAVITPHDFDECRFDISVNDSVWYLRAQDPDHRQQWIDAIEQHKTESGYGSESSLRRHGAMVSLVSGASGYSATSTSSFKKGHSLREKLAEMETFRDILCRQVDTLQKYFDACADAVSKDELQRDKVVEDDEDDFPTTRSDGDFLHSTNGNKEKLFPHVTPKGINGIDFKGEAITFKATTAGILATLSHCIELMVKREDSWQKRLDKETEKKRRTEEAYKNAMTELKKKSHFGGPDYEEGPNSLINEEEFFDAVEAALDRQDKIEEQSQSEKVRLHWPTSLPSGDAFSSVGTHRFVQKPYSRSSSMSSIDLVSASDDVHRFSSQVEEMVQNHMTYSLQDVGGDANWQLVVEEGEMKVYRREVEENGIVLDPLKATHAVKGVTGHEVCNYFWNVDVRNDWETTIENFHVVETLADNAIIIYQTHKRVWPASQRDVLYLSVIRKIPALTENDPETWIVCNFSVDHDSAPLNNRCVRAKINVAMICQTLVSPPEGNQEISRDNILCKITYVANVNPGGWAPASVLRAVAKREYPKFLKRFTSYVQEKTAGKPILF
# B1: pUL21-H6 (natural protein)
# chain: MELSYATTMHYRDVVFYVTTDRNRAYFVCGGCVYSVGRPCASQPGEIAKFGLVVRGTGPDDRVVANYVRSELRQRGLQDVRPIGEDEVFLDSVCLLNPNVSSELDVINTNDVEVLDECLAEYCTSLRTSPGVLISGLRVRAQDRIIELFEHPTIVNVSSHFVYTPSPYVFALAQAHLPRLPSSLEALVSGLFDGIPAPRQPLDAHNPRTDVVITGRRAPRPIAGSGAGSGGAGAKRATVSEFVQVKHIDRVGPAGVSPAPPPNNTDSSSLVPGAQDSAPPGPTLRELWWVFYAADRALEEPRADSGLTREEVRAVRGFREQAWKLFGSAGAPRAFIGAALGLSPLQKLAVYYYIIHRERRLSPFPALVRLVGRYTQRHGLYVPRPDDPVLADAINGLFRDALAAGTTAEQLLMFDLLPPKDVPVGSDVQADSTALLRFIESQRLAVPGGVISPEHVAYLGAFLSVLYAGRGRMSAATHTARLTGVTSLVLAVGDVDRLSAFDRGAAGAASRTRAAGYLDVLLTVRLARSQHGQSV
# Key:
# pUL21-H6 [1] = target: B1; assay: ITC; mean of 6
# H6-pUL21C [2] = target: T1, H6-pUL21C; assay: ITC; representative titration
# pUL21-H6 [3] = target: B1; assay: ITC; representative titration
# pUL21^V382E-H6 = target: T2, pUL21^V382E-H6; assay: ITC; 25°C, 20 mM Tris pH 8.5, 500 mM NaCl, 0.5 mM TCEP; CERTL forms or miniCERTL (about 190-380 μM) titrated into pUL21 forms (about 20-33 μM); one-site binding model; conditions: both partners purified
# H6-pUL21C [4] = target: T3, H6-pUL21C; assay: as above; conditions: both partners purified
# pUL21-H6 [5] = target: B1; assay: ITC; hyperphosphorylated CERTL; mean of 3
# pUL21-H6 [6] = target: B1; assay: ITC; hyperphosphorylated CERTL; representative titration
# [7] = target: the molecule itself; assay: SEC-MALS; Superose 6 increase 10/300 GL, 20 mM Tris pH 8.5, 500 mM NaCl, 0.5 mM TCEP; samples injected at 2 mg/mL
# pUL21-H6 [8] = target: T4, pUL21-H6; assay: ITC; 25°C, 20 mM Tris pH 8.5, 500 mM NaCl, 0.5 mM TCEP; CERTL forms or miniCERTL (about 190-380 μM) titrated into pUL21 forms (about 20-33 μM); one-site binding model; conditions: both partners purified
# StrepII-CERTL^S132A [9] = target: T5, StrepII-CERTL^S132A; assay: ITC; mean of 2
# StrepII-CERTL^S132A [10] = target: T5, StrepII-CERTL^S132A; assay: ITC; representative titration
binder,measurement,setting,value
"H6-miniCERTL (domain or fragment, human, UniProt Q9Y5P4-1 20-131, looked up, human CERTL (UniProt Q9Y5P4-1), residues 20-131: PH domain without its first 19 residues and the start of the middle region; human CERTL (UniProt Q9Y5P4-1), residues 351-624: the end of the middle region and the STARTL domain; joined directly to residue 131 (MR residues 132-350 left out); Cloned into pOPTH, which encodes the N-terminal MAH6 tag; source: E. coli T7 Express lysY/Iq, purified …) SGPPVERCGVLSKWTNYIHGWQDRWVVLKNNALSYYKSEDETEYGCRGSICLSKAVITPHDFDECRFDISVNDSVWYLRAQDPDHRQQWIDAIEQHKTESGYGSESSLRRHGTSLPSGDAFSSVGTHRFVQKPYSRSSSMSSIDLVSASDDVHRFSSQVEEMVQNHMTYSLQDVGGDANWQLVVEEGEMKVYRREVEENGIVLDPLKATHAVKGVTGHEVCNYFWNVDVRNDWETTIENFHVVETLADNAIIIYQTHKRVWPASQRDVLYLSVIRKIPALTENDPETWIVCNFSVDHDSAPLNNRCVRAKINVAMICQTLVSPPEGNQEISRDNILCKITYVANVNPGGWAPASVLRAVAKREYPKFLKRFTSYVQEKTAGKPILF",Kd,pUL21-H6 [1],1040 nM
same,Kd,H6-pUL21C [2],3150 nM
same,Kd,pUL21-H6 [3],879 nM
same,fold reduction of binding affinity against wild-type pUL21,pUL21^V382E-H6,~8 fold
same,Kd,H6-pUL21C [4],4300 nM
"StrepII-CERTL^P (hyperphosphorylated StrepII-tagged CERTL) (natural protein, human, UniProt Q9Y5P4-1 1-624, looked up, hyperphosphorylated; sites not given, human CERTL, synthetic gene, UniProt Q9Y5P4-1; Observed mass by SEC-MALS approaches that of a trimer; not shown: StrepII, N-terminal, kept) MSDNQSWNSSGSEEDPETESGPPVERCGVLSKWTNYIHGWQDRWVVLKNNALSYYKSEDETEYGCRGSICLSKAVITPHDFDECRFDISVNDSVWYLRAQDPDHRQQWIDAIEQHKTESGYGSESSLRRHGSMVSLVSGASGYSATSTSSFKKGHSLREKLAEMETFRDILCRQVDTLQKYFDACADAVSKDELQRDKVVEDDEDDFPTTRSDGDFLHSTNGNKEKLFPHVTPKGINGIDFKGEAITFKATTAGILATLSHCIELMVKREDSWQKRLDKETEKKRRTEEAYKNAMTELKKKSHFGGPDYEEGPNSLINEEEFFDAVEAALDRQDKIEEQSQSEKVRLHWPTSLPSGDAFSSVGTHRFVQKPYSRSSSMSSIDLVSASDDVHRFSSQVEEMVQNHMTYSLQDVGGDANWQLVVEEGEMKVYRREVEENGIVLDPLKATHAVKGVTGHEVCNYFWNVDVRNDWETTIENFHVVETLADNAIIIYQTHKRVWPASQRDVLYLSVIRKIPALTENDPETWIVCNFSVDHDSAPLNNRCVRAKINVAMICQTLVSPPEGNQEISRDNILCKITYVANVNPGGWAPASVLRAVAKREYPKFLKRFTSYVQEKTAGKPILF",Kd,pUL21-H6 [5],773 nM
same,Kd,pUL21-H6 [6],554 nM
same,stoichiometry N,[7],~3
same,stoichiometry N,pUL21-H6 [8],0.74
"StrepII-CERTL^S132A (natural protein, human, UniProt Q9Y5P4-1 1-624, looked up, human CERTL, synthetic gene, UniProt Q9Y5P4-1, with S132A; Hypophosphorylated: S132 cannot be phosphorylated to start the phosphorylation cascade of the serine-rich motif; also called constitutively hypophosphorylated form of CERTL; source: stably transfected Freestyle 293F cells, doxycycline-induced, purified (StrepTrap HP, Superose 6 SEC); not shown: StrepII, N-terminal, kept) MSDNQSWNSSGSEEDPETESGPPVERCGVLSKWTNYIHGWQDRWVVLKNNALSYYKSEDETEYGCRGSICLSKAVITPHDFDECRFDISVNDSVWYLRAQDPDHRQQWIDAIEQHKTESGYGSESSLRRHGAMVSLVSGASGYSATSTSSFKKGHSLREKLAEMETFRDILCRQVDTLQKYFDACADAVSKDELQRDKVVEDDEDDFPTTRSDGDFLHSTNGNKEKLFPHVTPKGINGIDFKGEAITFKATTAGILATLSHCIELMVKREDSWQKRLDKETEKKRRTEEAYKNAMTELKKKSHFGGPDYEEGPNSLINEEEFFDAVEAALDRQDKIEEQSQSEKVRLHWPTSLPSGDAFSSVGTHRFVQKPYSRSSSMSSIDLVSASDDVHRFSSQVEEMVQNHMTYSLQDVGGDANWQLVVEEGEMKVYRREVEENGIVLDPLKATHAVKGVTGHEVCNYFWNVDVRNDWETTIENFHVVETLADNAIIIYQTHKRVWPASQRDVLYLSVIRKIPALTENDPETWIVCNFSVDHDSAPLNNRCVRAKINVAMICQTLVSPPEGNQEISRDNILCKITYVANVNPGGWAPASVLRAVAKREYPKFLKRFTSYVQEKTAGKPILF",stoichiometry N,[7],~3
same,stoichiometry N,pUL21-H6 [8],1
B1,Kd,StrepII-CERTL^S132A [9],642 nM
same,Kd,StrepII-CERTL^S132A [10],460 nM
